Values of other authors in patent US20140213534A1, “INTESTINAL HYPERPERMEABILITY AND PREVENTION OF SYSTEMIC DISEASE” (Thomas Jefferson University, priority 2011, published 2014).

Molecular target: ST receptors (Homo sapiens, UniProt P25092)
Details: relative to native ST; Currie et al. 1992

Sequence of ST receptors (P25092 24-1073): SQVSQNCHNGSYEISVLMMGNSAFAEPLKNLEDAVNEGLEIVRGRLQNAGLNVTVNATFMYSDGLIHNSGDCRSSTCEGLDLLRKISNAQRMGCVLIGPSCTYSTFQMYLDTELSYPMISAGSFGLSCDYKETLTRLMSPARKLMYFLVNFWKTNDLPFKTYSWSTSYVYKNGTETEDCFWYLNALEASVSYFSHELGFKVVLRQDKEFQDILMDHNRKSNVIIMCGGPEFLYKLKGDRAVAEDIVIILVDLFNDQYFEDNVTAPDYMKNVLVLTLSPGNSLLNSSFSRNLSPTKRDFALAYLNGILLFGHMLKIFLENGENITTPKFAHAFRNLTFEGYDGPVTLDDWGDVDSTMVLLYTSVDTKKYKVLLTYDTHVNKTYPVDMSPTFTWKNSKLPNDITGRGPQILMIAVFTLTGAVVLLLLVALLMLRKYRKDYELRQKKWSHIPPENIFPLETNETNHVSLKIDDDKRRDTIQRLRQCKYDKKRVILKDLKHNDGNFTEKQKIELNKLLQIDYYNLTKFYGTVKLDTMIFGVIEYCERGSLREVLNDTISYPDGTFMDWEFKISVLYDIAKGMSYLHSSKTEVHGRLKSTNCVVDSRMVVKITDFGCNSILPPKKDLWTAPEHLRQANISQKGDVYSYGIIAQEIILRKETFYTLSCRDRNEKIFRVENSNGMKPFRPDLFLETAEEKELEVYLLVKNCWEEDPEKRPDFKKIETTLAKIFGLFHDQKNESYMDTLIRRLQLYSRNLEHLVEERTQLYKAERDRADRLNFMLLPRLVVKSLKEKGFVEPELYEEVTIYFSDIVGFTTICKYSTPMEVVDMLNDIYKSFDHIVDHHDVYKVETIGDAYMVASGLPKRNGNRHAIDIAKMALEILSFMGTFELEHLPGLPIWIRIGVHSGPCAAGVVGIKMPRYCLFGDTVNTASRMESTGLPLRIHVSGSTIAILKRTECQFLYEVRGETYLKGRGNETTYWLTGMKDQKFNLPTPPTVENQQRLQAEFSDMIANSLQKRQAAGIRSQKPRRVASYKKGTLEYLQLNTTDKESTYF

Guanylin: 15 amino acid peptide with about 50% sequence homology to ST, identified in mammalian intestine; endogenous GCC agonist (PNTCEICAYAACTGC; Rattus Norvegious)
activates guanylate cyclase at a level fold less than native ST: 10- to 100 fold
